Reference: patent US20170334951A1 (Memorial Sloan Kettering, published 2017)

Experiments:
Assay in all cases: cell-based or functional assay
[1] = target: HLA-A0101 (human)
[2] = target: HLA-A0201 (human)
[3] = target: HLA-B3802 (human)
[4] = target: HLA-B4402 (human)
[5] = target: HLA-B4001 (human)
[6] = target: HLA-B3501 (human)
[7] = target: HLA-B3508 (human)
[8] = target: HLA-C1701 (human)
[9] = target: HLA-B3503 (human)
[10] = target: HLA-B0702 (human)
[11] = target: HLA-A2402 (human)
[12] = target: HLA-A3101 (human)
[13] = target: HLA-C0401 (human)
[14] = target: HLA-A0203 (human)
[15] = target: HLA-DRB10101 (human)
[16] = target: HLA-A6901 (human)
[17] = target: HLA-B3901 (human)
[18] = target: HLA-B4701 (human)
[19] = target: HLA-DRB10401 (human)
[20] = target: HLA-B5701 (human)
[21] = target: HLA-DRB11104 (human)
[22] = target: HLA-DRB10402 (human)
[23] = target: HLA-B3801 (human)

B1: WT1 146-154 NQGYSTVTF (peptide)
peptide: NQGYSTVTF
- Cytotoxic CTL response, % (at 50:1) E:T ratio vs WT1+ allo APC with restricting HLA allele loaded with WT1 peptide [1]: 15%

B2: WT1 38-46 LDFAPPGAS (peptide)
peptide: LDFAPPGAS
- Cytotoxic CTL response, % (at 50:1) E:T ratio vs WT1+ allo APC with restricting HLA allele loaded with WT1 peptide [2]: 62%

B3: WT1 206-214 TDSCTGSQA (peptide)
peptide: TDSCTGSQA
- Cytotoxic CTL response, % (at 50:1) E:T ratio vs WT1+ allo APC with restricting HLA allele loaded with WT1 peptide [3]: 53%
- Cytotoxic CTL response, % (at 50:1) E:T ratio vs WT1+ allo APC with restricting HLA allele loaded with WT1 peptide [4]: 88%

B4: WT1 (-99)-(-91) THSPTHPPR (peptide)
peptide: THSPTHPPR
- Cytotoxic CTL response, % (at 50:1) E:T ratio vs WT1+ allo APC with restricting HLA allele loaded with WT1 peptide [2]: 21%
- Cytotoxic CTL response, % (at 50:1) E:T ratio vs WT1+ allo APC with restricting HLA allele loaded with WT1 peptide [5]: 31%

B5: WT1 209-217 CTGSQALLL (peptide)
peptide: CTGSQALLL
- Cytotoxic CTL response, % (at 50:1) E:T ratio vs WT1+ allo APC with restricting HLA allele loaded with WT1 peptide [1]: 26%

B6: WT1 174-182 HSFKHEDPM (peptide)
peptide: HSFKHEDPM
- Cytotoxic CTL response, % (at 50:1) E:T ratio vs WT1+ allo APC with restricting HLA allele loaded with WT1 peptide [6]: 63%

B7: WT1 269-278 GYESDNHTT (peptide)
peptide: GYESDNHTT
- Cytotoxic CTL response, % (at 50:1) E:T ratio vs WT1+ allo APC with restricting HLA allele loaded with WT1 peptide [1]: 26%
- Cytotoxic CTL response, % (at 50:1) E:T ratio vs WT1+ allo APC with restricting HLA allele loaded with WT1 peptide [6]: 23%

B8: WT1 398-406 … (peptide)
peptide: LKTHTTRTHT
- Cytotoxic CTL response, % (at 50:1) E:T ratio vs WT1+ allo APC with restricting HLA allele loaded with WT1 peptide [2]: 22%

B9: WT1 238-246 WNQMNLGAT (peptide)
peptide: WNQMNLGAT
- Cytotoxic CTL response, % (at 50:1) E:T ratio vs WT1+ allo APC with restricting HLA allele loaded with WT1 peptide [1]: 19%
- Cytotoxic CTL response, % (at 50:1) E:T ratio vs WT1+ allo APC with restricting HLA allele loaded with WT1 peptide [2]: 21%
- Cytotoxic CTL response, % (at 50:1) E:T ratio vs WT1+ allo APC with restricting HLA allele loaded with WT1 peptide [7]: 21%
- Cytotoxic CTL response, % (at 50:1) E:T ratio vs WT1+ allo APC with restricting HLA allele loaded with WT1 peptide [8]: 7%

B10: WT1 218-226 RTPYSSDNL (peptide)
peptide: RTPYSSDNL
- Cytotoxic CTL response, % (at 50:1) E:T ratio vs WT1+ allo APC with restricting HLA allele loaded with WT1 peptide [9]: 31%

B11: WT1 202-210 CHTPTDSCT (peptide)
peptide: CHTPTDSCT
- Cytotoxic CTL response, % (at 50:1) E:T ratio vs WT1+ allo APC with restricting HLA allele loaded with WT1 peptide [4]: 19%

B12: WT1 106-114 ACRYGPFGP (peptide)
peptide: ACRYGPFGP
- Cytotoxic CTL response, % (at 50:1) E:T ratio vs WT1+ allo APC with restricting HLA allele loaded with WT1 peptide [4]: 23%

B13: WT1 (-119)-(-111) GALRNPTAC (peptide)
peptide: GALRNPTAC
- Cytotoxic CTL response, % (at 50:1) E:T ratio vs WT1+ allo APC with restricting HLA allele loaded with WT1 peptide [10]: 22%

B14: WT1 46-54 SAYGSLGGP (peptide)
peptide: SAYGSLGGP
- Cytotoxic CTL response, % (at 50:1) E:T ratio vs WT1+ allo APC with restricting HLA allele loaded with WT1 peptide [2]: 31%
- Cytotoxic CTL response, % (at 50:1) E:T ratio vs WT1+ allo APC with restricting HLA allele loaded with WT1 peptide [5]: 24%

B15: WT1 239-248 NQMNLGATL (peptide)
peptide: NQMNLGATL
- Cytotoxic CTL response, % (at 50:1) E:T ratio vs WT1+ allo APC with restricting HLA allele loaded with WT1 peptide [11]: 2%

B16: WT1 390-398 RKFSRSDHL (peptide)
peptide: RKFSRSDHL
- Cytotoxic CTL response, % (at 50:1) E:T ratio vs WT1+ allo APC with restricting HLA allele loaded with WT1 peptide [2]: 27%

B17: WT1 (-107)-(-99) HFPPSLPPT (peptide)
peptide: HFPPSLPPT
- Cytotoxic CTL response, % (at 50:1) E:T ratio vs WT1+ allo APC with restricting HLA allele loaded with WT1 peptide [12]: 27%

B18: WT1 (-8)-(1) ASGSEPQQM (peptide)
peptide: ASGSEPQQM
- Cytotoxic CTL response, % (at 50:1) E:T ratio vs WT1+ allo APC with restricting HLA allele loaded with WT1 peptide [6]: 51%

B19: WT1 (-110)-(-102) PLPHFPPSL (peptide)
peptide: PLPHFPPSL
- Cytotoxic CTL response, % (at 50:1) E:T ratio vs WT1+ allo APC with restricting HLA allele loaded with WT1 peptide [2]: 24%

B20: WT1 323-332 FMCAYPGCNK (peptide)
peptide: FMCAYPGCNK
- Cytotoxic CTL response, % (at 50:1) E:T ratio vs WT1+ allo APC with restricting HLA allele loaded with WT1 peptide [1]: 0%
- Cytotoxic CTL response, % (at 50:1) E:T ratio vs WT1+ allo APC with restricting HLA allele loaded with WT1 peptide [6]: 61%

B21: WT1 122-130 SGQARMFPN (peptide)
peptide: SGQARMFPN
- Cytotoxic CTL response, % (at 50:1) E:T ratio vs WT1+ allo APC with restricting HLA allele loaded with WT1 peptide [9]: 41%
- Cytotoxic CTL response, % (at 50:1) E:T ratio vs WT1+ allo APC with restricting HLA allele loaded with WT1 peptide [13]: 41%

B22: WT1 243-252 LGATLKGVAA (peptide)
peptide: LGATLKGVAA
- Cytotoxic CTL response, % (at 50:1) E:T ratio vs WT1+ allo APC with restricting HLA allele loaded with WT1 peptide [14]: 21%

B23: WT1 58-66 PAPPPPPPP (peptide)
peptide: PAPPPPPPP
- Cytotoxic CTL response, % (at 50:1) E:T ratio vs WT1+ allo APC with restricting HLA allele loaded with WT1 peptide [2]: 18%

B24: WT1 (-47)-(-37) PGCLQQPEQQG (peptide)
peptide: PGCLQQPEQQG
- Cytotoxic CTL response, % (at 50:1) E:T ratio vs WT1+ allo APC with restricting HLA allele loaded with WT1 peptide [15]: 25%

B25: WT1 (-75)-(-67) AILDFLLLQ (peptide)
peptide: AILDFLLLQ
- Cytotoxic CTL response, % (at 50:1) E:T ratio vs WT1+ allo APC with restricting HLA allele loaded with WT1 peptide [2]: 17%

B26: WT1 225-233 NLYQMTSQLE (peptide)
peptide: NLYQMTSQLE
- Cytotoxic CTL response, % (at 50:1) E:T ratio vs WT1+ allo APC with restricting HLA allele loaded with WT1 peptide [2]: 28%

B27: WT1 (-27)-(-19) KLGAAEASA (peptide)
peptide: KLGAAEASA
- Cytotoxic CTL response, % (at 50:1) E:T ratio vs WT1+ allo APC with restricting HLA allele loaded with WT1 peptide [2]: 22%

B28: WT1 246-253 TLGVAAGS (peptide)
peptide: TLGVAAGS
- Cytotoxic CTL response, % (at 50:1) E:T ratio vs WT1+ allo APC with restricting HLA allele loaded with WT1 peptide [16]: 57%

B29: WT1 30-38 GAAQWAPVL (peptide)
peptide: GAAQWAPVL
- Cytotoxic CTL response, % (at 50:1) E:T ratio vs WT1+ allo APC with restricting HLA allele loaded with WT1 peptide [17]: 19%

B30: WT1 (-47)-(-39) PGCLQQPEQ (peptide)
peptide: PGCLQQPEQ
- Cytotoxic CTL response, % (at 50:1) E:T ratio vs WT1+ allo APC with restricting HLA allele loaded with WT1 peptide [2]: 27%
- Cytotoxic CTL response, % (at 50:1) E:T ratio vs WT1+ allo APC with restricting HLA allele loaded with WT1 peptide [18]: 25%

B31: WT1 242-250 NLGATLKGV (peptide)
peptide: NLGATLKGV
- Cytotoxic CTL response, % (at 50:1) E:T ratio vs WT1+ allo APC with restricting HLA allele loaded with WT1 peptide [1]: 17%
- Cytotoxic CTL response, % (at 50:1) E:T ratio vs WT1+ allo APC with restricting HLA allele loaded with WT1 peptide [2]: 14%

B32: WT1 320-334 KRPFMCAYPGC (peptide)
peptide: KRPFMCAYPGC
- Cytotoxic CTL response, % (at 50:1) E:T ratio vs WT1+ allo APC with restricting HLA allele loaded with WT1 peptide [19]: 0%

B33: WT1 436-445 NMHQRNHTKL (peptide)
peptide: NMHQRNHTKL
- Cytotoxic CTL response, % (at 50:1) E:T ratio vs WT1+ allo APC with restricting HLA allele loaded with WT1 peptide [2]: 32%
- Cytotoxic CTL response, % (at 50:1) E:T ratio vs WT1+ allo APC with restricting HLA allele loaded with WT1 peptide [11]: 27%
- Cytotoxic CTL response, % (at 50:1) E:T ratio vs WT1+ allo APC with restricting HLA allele loaded with WT1 peptide [5]: 26%

B34: WT1 (-125)-(-117) RQRPHPGAL (peptide)
peptide: RQRPHPGAL
- Cytotoxic CTL response, % (at 50:1) E:T ratio vs WT1+ allo APC with restricting HLA allele loaded with WT1 peptide [10]: 53%

B35: WT1 6-15 RDLNALLPAV (peptide)
peptide: RDLNALLPAV
- Cytotoxic CTL response, % (at 50:1) E:T ratio vs WT1+ allo APC with restricting HLA allele loaded with WT1 peptide [2]: 31%
- Cytotoxic CTL response, % (at 50:1) E:T ratio vs WT1+ allo APC with restricting HLA allele loaded with WT1 peptide [20]: 22%

B36: WT1 238-248 WNQMNLGATLK (peptide)
peptide: WNQMNLGATLK
- Cytotoxic CTL response, % (at 50:1) E:T ratio vs WT1+ allo APC with restricting HLA allele loaded with WT1 peptide [21]: 1%

B37: WT1 135-143 PSCLESQPA (peptide)
peptide: PSCLESQPA
- Cytotoxic CTL response, % (at 50:1) E:T ratio vs WT1+ allo APC with restricting HLA allele loaded with WT1 peptide [6]: 21%

B38: WT1 38-48 LDFAPPGASAY (peptide)
peptide: LDFAPPGASAY
- Cytotoxic CTL response, % (at 50:1) E:T ratio vs WT1+ allo APC with restricting HLA allele loaded with WT1 peptide [22]: 71%

B39: WT1 22-31 GGCALPVSGA (peptide)
peptide: GGCALPVSGA
- Cytotoxic CTL response, % (at 50:1) E:T ratio vs WT1+ allo APC with restricting HLA allele loaded with WT1 peptide [2]: 25%

B40: WT1 235-249 CMTWNQMNLGATLKG (peptide)
peptide: CMTWNQMNLGATLKG
- Cytotoxic CTL response, % (at 50:1) E:T ratio vs WT1+ allo APC with restricting HLA allele loaded with WT1 peptide [22]: 15%

B41: WT1 166-174 HHAAQFPNH (peptide)
peptide: HHAAQFPNH
- Cytotoxic CTL response, % (at 50:1) E:T ratio vs WT1+ allo APC with restricting HLA allele loaded with WT1 peptide [23]: 17%
